Binding result and EC50 data for two molecules are collected here from patent publication WO2013190679A1 (dated 2013).

The EC50 is the midpoint of the concentration-response curve.

The target of assay [1] is T1, BSA (negative control, Sigma) (UniProt P02769 25-607). Briefly: ELISA, BSA immobilised, HRP anti-mouse IgG.
In assay [2] the target is T2, recombinant human LOX-1 protein (61-273aa) (human, UniProt P78380 61-273). Kind of assay: ELISA, LOX-1 (61-273aa) immobilised, HRP anti-mouse IgG.
In assay [3] the target is T1, BSA (negative control, Sigma). Kind of assay: ELISA, BSA immobilised, HRP anti-V5 tag. In general terms: In an ELISA, binding on a coated surface is turned into a signal by an enzyme label.
Assay [4] concerns the target T2, recombinant human LOX-1 protein …. Briefly: ELISA on immobilised LOX-1; protein concentration at the inflection point of a 4-parameter logistic fit.

T1 sequence (P02769 25-607 limits assumed): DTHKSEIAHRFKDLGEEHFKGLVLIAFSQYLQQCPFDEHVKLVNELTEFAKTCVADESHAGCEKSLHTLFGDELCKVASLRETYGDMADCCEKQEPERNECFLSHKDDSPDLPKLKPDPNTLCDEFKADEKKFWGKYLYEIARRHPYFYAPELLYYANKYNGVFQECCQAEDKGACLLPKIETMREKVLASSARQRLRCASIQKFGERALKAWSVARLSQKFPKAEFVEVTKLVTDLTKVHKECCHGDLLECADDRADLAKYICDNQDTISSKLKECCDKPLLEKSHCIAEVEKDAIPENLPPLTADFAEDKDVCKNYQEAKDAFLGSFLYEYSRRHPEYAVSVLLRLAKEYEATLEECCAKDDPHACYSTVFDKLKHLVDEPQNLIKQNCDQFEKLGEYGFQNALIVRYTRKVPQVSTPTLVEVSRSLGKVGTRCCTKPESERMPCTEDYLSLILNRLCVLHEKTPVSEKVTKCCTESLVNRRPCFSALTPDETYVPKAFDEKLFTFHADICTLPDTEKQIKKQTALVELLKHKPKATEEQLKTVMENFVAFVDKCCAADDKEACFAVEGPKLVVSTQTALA

B1: mouse anti-LOX-1 monoclonal antibody #10-1 (antibody, V domains shown)
VH: EVKLLESGGGLVQPGGSLKLSCAVSGFDFSRYWMSWVRQAPGKGLEWIGEINPDSSTINFTPSLKDKFIVSRDNAKNTLYLQMSKVRSEDTALYYCARNDVLLGAMDYWGQGTSVTVSS
VL: DVLMTQTPLSLPVSLGDQASISCRSSQTIVHSNGKTYLEWYLQKPGQSPKLLIYKVSNRFSGVPDRFSGSGSGTDFTLKISRVEAEDLGVYYCFQGSHVPLTFGAGTKLELK
notes: Whole mouse IgG1, kappa from the hybridoma; also called anti-LOX-1 antibody #10-1; IgG type of mouse anti-LOX-1 antibody #10-1
On to B1, for which the values for the binding result in assay [1] and in assay [2] were “no binding” and “binds”, respectively.

B2: Fv-type anti-LOX-1 antibody (scFv)
scFv: EVKLLESGGGLVQPGGSLKLSCAVSGFDFSRYWMSWVRQAPGKGLEWIGEINPDSSTINFTPSLKDKFIVSRDNAKNTLYLQMSKVRSEDTALYYCARNDVLLGAMDYWGQGTSVTVSSGGGGSGGGGSGGGGSDVLMTQTPLSLPVSLGDQASISCRSSQTIVHSNGKTYLEWYLQKPGQSPKLLIYKVSNRFSGVPDRFSGSGSGTDFTLKISRVEAEDLGVYYCFQGSHVPLTFGAGTKLELK
notes: The VH gene was amplified with the #10-1 heavy chain secretion signal; Expressed in FreeStyle 293 and purified by the His tag; also called Fv type antibody; Fv-type antibody; not shown: C-terminal V5 and 6xHis tag from the pEF6/V5/His vector
Regarding B2, the binding result in assay [3] was “no binding”. Besides, the EC50 in assay [4] is 2.91 µg/mL.
